{
  "source": "IntAct's records for PubMed 23851574",
  "parents": {"B1": {"name": "Large envelope protein (Hepatitis B virus genotype D subtype adw (isolate United Kingdom/adyw/1979)), P03139-1 (parent)", "chain": "MGQNLSTSNPLGFFPDHQLDPAFRANTNNPDWDFNPNKDTWPDANKVGAGAFGLGFTPPHGGLLGWSPQAQGIMQTLPANPPPASTNRQSGRQPTPLSPPLRTTHPQAMHWNSTTFHQTLQDPRVRGLYFPAGGSSSGTVNPVPTTTSPISSIFSRIGDPALNMENITSGFLGPLLVLQAGFFLLTRILTIPQSLDSWWTSLNFLGGTTVCLGQNSQSPISNHSPTSCPPTCPGYRWMCLRRFIIFLFILLLCLIFLLVLLDYQGMLPVCPLIPGSSTTSTGSCRTCTTPAQGISMYPSCCCTKPSDGNCTCIPIPSSWAFGKFLWEWASARFSWLSLLVPFVQWFVGLSPIVWLSVIWMMWYWGPSLYSILSPFLPLLPIFFCLWAYI", "partner": "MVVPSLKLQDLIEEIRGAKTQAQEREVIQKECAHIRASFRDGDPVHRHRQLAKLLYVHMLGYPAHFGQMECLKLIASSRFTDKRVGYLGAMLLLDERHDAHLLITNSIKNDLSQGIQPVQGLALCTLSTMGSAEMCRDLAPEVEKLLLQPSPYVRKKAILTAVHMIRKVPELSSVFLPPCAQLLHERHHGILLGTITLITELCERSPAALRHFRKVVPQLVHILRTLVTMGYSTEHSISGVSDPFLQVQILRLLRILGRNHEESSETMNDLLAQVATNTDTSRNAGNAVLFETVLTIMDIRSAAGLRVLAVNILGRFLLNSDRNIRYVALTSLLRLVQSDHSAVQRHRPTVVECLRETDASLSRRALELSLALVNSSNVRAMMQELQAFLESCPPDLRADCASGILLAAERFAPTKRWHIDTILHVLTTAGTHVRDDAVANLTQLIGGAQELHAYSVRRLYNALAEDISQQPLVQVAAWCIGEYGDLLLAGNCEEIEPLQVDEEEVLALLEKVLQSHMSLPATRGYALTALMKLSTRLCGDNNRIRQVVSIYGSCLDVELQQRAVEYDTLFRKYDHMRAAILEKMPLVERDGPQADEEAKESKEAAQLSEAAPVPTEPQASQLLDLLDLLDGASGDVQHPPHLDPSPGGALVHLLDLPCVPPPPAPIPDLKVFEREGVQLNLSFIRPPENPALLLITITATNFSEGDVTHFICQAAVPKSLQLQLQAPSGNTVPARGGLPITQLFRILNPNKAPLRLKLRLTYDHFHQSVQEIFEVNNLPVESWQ"}, "B2": {"name": "AP-1 complex subunit gamma-like 2 (Homo sapiens), O75843 (parent)", "chain": "B1 partner"}},
  "data": [
    {"variants_of": "B1", "conditions": "with ap1g2_human AP1G2, O75843", "values": [
      {"variant": "D31A", "effect of a mutation on the interaction": "decreasing interaction strength"},
      {"variant": "D33A", "effect of a mutation on the interaction": "decreasing interaction strength"},
      {"variant": "W32A", "effect of a mutation on the interaction": "decreasing interaction strength"},
      {"variant": "F34A", "effect of a mutation on the interaction": "decreasing interaction strength"}
    ]},
    {"variants_of": "B2", "conditions": "with S", "values": [
      {"variant": "R756Q", "effect of a mutation on the interaction": "decreasing interaction strength"},
      {"variant": "R756A", "effect of a mutation on the interaction": "decreasing interaction strength"},
      {"variant": "P754A", "effect of a mutation on the interaction": "decreasing interaction strength"},
      {"variant": "A716G", "effect of a mutation on the interaction": "decreasing interaction strength"},
      {"variant": "K719Q", "effect of a mutation on the interaction": "decreasing interaction strength"},
      {"variant": "R760A", "effect of a mutation on the interaction": "decreasing interaction strength"},
      {"variant": "S720A", "effect of a mutation on the interaction": "decreasing interaction strength"}
    ]}
  ]
}
